One protein from FireProtDB (doi:10.1002/prot.10406) can be followed below.

For this data set the following is noted: Homo sapiens, Urea, CD, phosphate citrate borate 2 mM 2 mM 2 mM, NaCl 10 mM, whole UniProt chain shown.

“And” between values parts separate entries of the source, which are not always exact repeats. Equal values may be shown once.

B1: Alpha-lactalbumin wild type, P00709 (protein)
chain: MRFFVPLFLVGILFPAILAKQFTKCELSQLLKDIDGYGGIALPELICTMFHTSGYDTQAIVENNESTEYGLFQISNKLWCKSSQVPQSRNICDISCDKFLDDDITDDIMCAKKILDIKGIDYWLAHKALCTEKLEQWLCEKL
With B1, under “pH 2, 20 °C”, the denaturant m value is 0.54 kcal/mol/M and 0.67 kcal/mol/M. Also, where the note is “pH 7, 2 °C, transition: 3”, the denaturant m value is 0.95 kcal/mol/M and 0.55 kcal/mol/M; the “denaturant midpoint (higher = more stable)” value is 2.24 M and 2.34 M; the unfolding free energy is 2.13 kcal/mol and 1.27 kcal/mol.
